According to patent publication US20250179210A1, “ANTI-CEACAM5 ANTIBODIES AND CONJUGATES AND USES THEREOF” (Merck Patent GmbH, priority 2022, published 2025):

Biological target: Recombinant Macaca fascicularis CEACAM5_ECD-His-biotin (Syngene) (Macaca fascicularis)
Assay: BLI (Octet Red), biotinylated antigen captured on streptavidin biosensor, Fab as analyte 6.25-200 nM

Recombinant Macaca fascicularis CEACAM5_ECD-His-biotin (Syngene) (Macaca fascicularis), sequence (chain, as listed by the source limits assumed, form in doubt): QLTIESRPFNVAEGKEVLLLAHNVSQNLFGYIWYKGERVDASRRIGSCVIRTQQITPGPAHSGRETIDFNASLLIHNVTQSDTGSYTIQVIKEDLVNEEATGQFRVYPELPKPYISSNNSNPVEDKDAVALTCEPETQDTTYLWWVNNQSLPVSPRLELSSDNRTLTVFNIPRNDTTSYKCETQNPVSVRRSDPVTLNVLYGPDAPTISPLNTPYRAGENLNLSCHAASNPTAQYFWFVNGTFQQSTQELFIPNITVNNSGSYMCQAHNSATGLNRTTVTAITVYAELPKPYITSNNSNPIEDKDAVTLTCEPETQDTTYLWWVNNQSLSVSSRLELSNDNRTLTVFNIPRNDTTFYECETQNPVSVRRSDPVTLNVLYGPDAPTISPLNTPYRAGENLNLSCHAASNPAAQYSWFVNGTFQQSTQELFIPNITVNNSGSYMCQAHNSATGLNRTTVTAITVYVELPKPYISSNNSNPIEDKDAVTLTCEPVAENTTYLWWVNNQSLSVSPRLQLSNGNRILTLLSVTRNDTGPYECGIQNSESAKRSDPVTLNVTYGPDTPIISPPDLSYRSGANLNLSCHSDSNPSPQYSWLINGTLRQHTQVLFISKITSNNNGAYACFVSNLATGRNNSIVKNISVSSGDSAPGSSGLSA

Kd: 14.1 nM
B1: Fab of mAb1 (Fab, V domains shown)
VH: EVQLQESGPGLVKPSQTLSLTCTVSDGSVSRGGYYLTWIRQHPGKGLEWIGYIYYSGSTYFNPSLRSRVTMSVDTSKNQFSLKLSSVTAADTAVYYCARGIAVAPFDYWGQGTLVTVSS
VL: EIVLTQSPATLSVSPGERATLSCRTSQSVRSNLAWYQQKPGQAPRLLIYAASTRATGIPARFSGSGSGTEFTLTISSLQSEDFAVYYCQQYTNWPFTFGPGTKVDIK
